Legend:
Experiment in all cases: cell-based or functional assay
[1] = target: Glycoprotein VI on human platelets of donors not sorted to one allele (random donors, 'ab' heterozygotes, or donors whose genotype is not stated) (human) (UniProt Q9HCN6)
[2] = target: Glycoprotein VI, GPVI^a allele protein (SKTQH), on platelets of 'aa' homozygous donors (human) (UniProt Q9HCN6)
[3] = target: Glycoprotein VI, GPVI^b allele protein (PEALN), on platelets of 'bb' homozygous donors (human) (UniProt Q9HCN6)

## Collagen related peptide (CRP), triple-helical peptide containing a glycine-proline-hydroxyproline repeat motif
[1]
  % of platelets binding annexin V at CRP 10 µg/ml: 10 to 30%
[2]
  platelet aggregation at a CRP concentration of 0.10 µg/ml (mean): 71%
[3]
  platelet aggregation at a CRP concentration of 0.10 µg/ml (mean): 4.6%

From patent US7855050
